Results reported in patent publication US20030027766A1 (University of Texas, published 2003).
One block for each molecule: values may come before it.

What was measured:
[1] = biological target: T1, HLA-A2 (human); assay: immunofluorescence staining of ovarian tumor OVA-16
T1 construct: allele written as A*02:01 on that basis; also called HLA-A2.1; A2.1

[2] = biological target: T1, HLA-A2; assay: immunofluorescence staining of ovarian tumor OVA-14
[3] = biological target: certain MHC Class I heavy chains other than HLA-A2; assay: cell-based or functional assay
[4] = biological target: T1, HLA-A2; assay: HLA-A2 stabilization on T2 cells, against D113
[5] = biological target: T1, HLA-A2; assay: HLA-A2 stabilization on T2 cells

inhibition of lysis of OVA-1 tumor (HLA-A2 negative) by autologous CTL-1 after pre-pulsing with peptide [3]: 25%
B1: C44 (analog of HER-2:968-981, VS->II) (peptide)
peptide: RFRELIIEFSRMAR

binding result [4]: binds
B2: D114 = HER-2:47-56(48H->L) (peptide)
peptide: RLLYQGCQVV
notes: Synthetic analog

binding result [4]: binds
B3: D115 = HER-2:48-56(48H->G) (peptide)
peptide: GLYQGCQVV
notes: Synthetic analog

More lines, now with the values behind:

Molecule: mAb MA2.1 (anti-HLA-A2) (antibody)
% HLA-A2 positive cells [1]: 85.3% | mean fluorescence [1]: 42 | % HLA-A2 positive cells [2]: 92.1% | mean fluorescence [2]: 49

B4: C43 (HER-2:968-981) (peptide)
peptide: RFRELVSEFSRMAR
inhibition of lysis of OVA-1 tumor (HLA-A2 negative) by autologous CTL-1 after pre-pulsing with peptide [3]: 45%

B5: C81 (analog of HER-2:971-979, F->V, RM->KV) (peptide)
peptide: ELVSEVSKV
binding result [5]: binds

B6: C84 (HER-2:971-979(Val)) (peptide)
peptide: ELVSEFSRV
notes: Synthetic analog of C85
binding result [5]: binds
